Laboratory results from the supplement of paper PMC10899765.

These sequences were tested on MCF10A (assay: 5+ nucleoli phenotype percent effect (relative to siNT 0% and siKIF11 100%); higher = more cells with five or more nucleoli). Settings: 20 nM; 72 h.
Experimental: (§1)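 After 72 h, cells were fixed and stained with Hoechst and anti-fibrillarin, and nucleoli per nucleus were counted with CellProfiler. Values are plate-adjusted percent effect for the one-nucleolus and 5+ nucleoli phenotypes, normalised to siNT (0%) and to the positive controls siNOL11 or siKIF11 (100%), as the mean of biological triplicates. Percent viability is the nuclei count relative to siNT.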

Sequence	5+ nucleoli phenotype percent effect
UGAUCAGGCAAAAUUGCAGACU [hsa-miR-4772-5p]	47.2%
CGCCUGCCCAGCCCUCCUGCU [hsa-miR-4763-5p]	-11.3%
UUCAACGGGUAUUUAUUGAGCA [hsa-miR-95]	9.5%
GCAUGUGAUGAAGCAAAUCAGU [hsa-miR-3607-5p]	-8.33%
AAUUUACUCUGCAAUCUUCUCC [hsa-miR-4699-3p]	-0.943%
CGCAGACAAUGCCUACUGGCCUA [hsa-miR-3166]	-21.5%
UUAGUGCAUAGUCUUUGGUCU [hsa-miR-4671-3p]	47.6%
GGGGCCUGGCGGUGGGCGG [hsa-miR-2861]	87.4%
AUCAUACAAGGACAAUUUCUUU [hsa-miR-539-3p]	-9.08%
AGGGACUGCCUUAGGAGAAAGUU [hsa-miR-3199]	42.9%
CCUGUUGAAGUGUAAUCCCCA [hsa-miR-1267]	39.6%
AUAGCAAUUGCUCUUUUGGAA [hsa-miR-4766-3p]	-28.9%
UACUGCAGACAGUGGCAAUCA [hsa-miR-509-5p]	5.43%
ACCCCCGGGCAAAGACCUGCAGAU [hsa-miR-6840-5p]	-18.8%
ACUUGUAUGCUAGCUCAGGUAG [hsa-miR-643]	68.8%
UGAGAUGAAGCACUGUAGCUC [hsa-miR-143-3p]	-1.77%
UGAGGAUAUGGCAGGGAAGGGGA [hsa-miR-3679-5p]	29.7%
UUGCAGCUGCCUGGGAGUGACUUC [hsa-miR-1301]	-32.5%
AACAAUAUCCUGGUGCUGAGUG [hsa-miR-338-5p]	-1.58%
CUGCGCAAGCUACUGCCUUGCU [hsa-let-7i-3p]	0.0505%

Sequence	5+ nucleoli phenotype percent effect
UUCCUUCUGUUGUCUGUGCAG [hsa-miR-6868-3p]	-19.2%
CGGGUGGGAGCAGAUCUUAUUGAG [hsa-miR-6766-5p]	56.1%
UCAACAAAAUCACUGAUGCUGGA [hsa-miR-3065-5p]	38.2%
UGUGCAAAUCUAUGCAAAACUGA [hsa-miR-19a-3p]	34.4%
CGACCUCGGCGACCCCUCACU [hsa-miR-6790-3p]	-13.8%
AGGGAGGGUGUGGUAUGGAUGU [hsa-miR-6883-5p]	-4.87%
CUGCAAUGUAAGCACUUCUUAC [hsa-miR-106a-3p]	-24.5%
AAGCAGCAGUGGCAAGACUCCU [hsa-miR-6838-5p]	-35.6%
AAGAGGAAGAAAUGGCUGGUUCUCAG [hsa-miR-3916]	-13.2%
AAAAGUAAUUGCGGAUUUUGCC [hsa-miR-548i]	20.3%
AGCCCCUGCCCACCGCACACUG [hsa-miR-210-5p]	53%
CACAUGGCCGAAACAGAGAAGU [hsa-miR-942-3p]	-8.03%
UCUGCCAUAGGAAGCUUGGAGUGG [hsa-miR-6817-5p]	1.17%
UCUGAAAGAGCAGUUGGUGUU [hsa-miR-4766-5p]	2.75%
AAGGCAGGGCCCCCGCUCCCC [hsa-miR-940]	-29.5%
AGGGUGGGGCUGGAGGUGGGGCU [hsa-miR-6756-5p]	-11%
UGGCCGGAUGGGACAGGAGGCAU [hsa-miR-4743-5p]	-11.6%
AUCCUCUCUUCCCUCCUCCCAG [hsa-miR-7111-3p]	-40%
UCUAGAGGAAGCACUUUCUGUUU [hsa-miR-520g-5p]	34.9%
ACUGUCACUUCUCUGCCCAUAG [hsa-miR-6773-3p]	-17.8%

Sequence	5+ nucleoli phenotype percent effect
UUGCAUGUCAGAUUGUAAUUCCC [hsa-miR-4666b]	-10.4%
AGUGGACCGAGGAAGGAAGGA [hsa-miR-4800-5p]	-9.53%
GGUGGAUAUUCCUUCUAUGUU [hsa-miR-376c-5p]	-0.73%
AAUGGCGCCACUAGGGUUGUG [hsa-miR-652-3p]	4.15%
CUCGGCCGCGGCGCGUAGCCCCCGCC [hsa-miR-4665-3p]	22%
AGCAGAGGCAGAGAGGCUCAGG [hsa-miR-2467-3p]	-24.4%
UCCGUCUCAGUUACUUUAUAGC [hsa-miR-340-3p]	26.3%
UGGAGAGAGAAAAGAGACAGAAG [hsa-miR-4644]	39.4%
AUGGGUGAUGGGUGUGGUGU [hsa-miR-4701-3p]	-25%
GGCUCCUUGGUCUAGGGGUA [hsa-miR-4448]	20.5%
CUCCUCCCCUGCCUGGCCCAG [hsa-miR-6749-3p]	0.0227%
UAUAAAAUGAGGGCAGUAAGAC [hsa-miR-3163]	30.5%
UGUCGUGGGGCUUGCUGGCUUG [hsa-miR-4440]	-27.6%
UAAAGUGGCAGAGUAUAGACAC [hsa-miR-4796-3p]	-8.21%
UGGUGGGCACAGAAUCUGGACU [hsa-miR-541-3p]	-0.0057%
UGUGCGCAGGGAGACCUCUCCC [hsa-miR-933]	-8.45%
CUAGGUAUGGUCCCAGGGAUCC [hsa-miR-331-5p]	19%
UUCACAGUGGCUAAGUUCUGC [hsa-miR-27b-3p]	-0.0856%
AGGAGGCAGCGCUCUCAGGAC [hsa-miR-650]	-3.4%

The sequences below were run on MCF10A (assay: one-nucleolus phenotype percent effect (relative to siNT 0% and siNOL11 100%); higher = more cells with one nucleolus (ribosome biogenesis inhibition)). Settings: 20 nM; 72 h.
Experimental: as §1

Sequence	one-nucleolus phenotype percent effect
UGAUCAGGCAAAAUUGCAGACU [hsa-miR-4772-5p]	9.01%
CGCCUGCCCAGCCCUCCUGCU [hsa-miR-4763-5p]	11.6%
UUCAACGGGUAUUUAUUGAGCA [hsa-miR-95]	-0.724%
GCAUGUGAUGAAGCAAAUCAGU [hsa-miR-3607-5p]	-2.14%
AAUUUACUCUGCAAUCUUCUCC [hsa-miR-4699-3p]	-12.5%
CGCAGACAAUGCCUACUGGCCUA [hsa-miR-3166]	6.38%
UUAGUGCAUAGUCUUUGGUCU [hsa-miR-4671-3p]	-12%
GGGGCCUGGCGGUGGGCGG [hsa-miR-2861]	-37.2%
AUCAUACAAGGACAAUUUCUUU [hsa-miR-539-3p]	-9.28%
AGGGACUGCCUUAGGAGAAAGUU [hsa-miR-3199]	-15.3%
CCUGUUGAAGUGUAAUCCCCA [hsa-miR-1267]	-18.3%
AUAGCAAUUGCUCUUUUGGAA [hsa-miR-4766-3p]	19.4%
UACUGCAGACAGUGGCAAUCA [hsa-miR-509-5p]	7.14%
ACCCCCGGGCAAAGACCUGCAGAU [hsa-miR-6840-5p]	5.12%
ACUUGUAUGCUAGCUCAGGUAG [hsa-miR-643]	-31.1%
UGAGAUGAAGCACUGUAGCUC [hsa-miR-143-3p]	-0.991%
UGAGGAUAUGGCAGGGAAGGGGA [hsa-miR-3679-5p]	-24.2%
UUGCAGCUGCCUGGGAGUGACUUC [hsa-miR-1301]	26.9%
AACAAUAUCCUGGUGCUGAGUG [hsa-miR-338-5p]	-0.375%
CUGCGCAAGCUACUGCCUUGCU [hsa-let-7i-3p]	-4.21%
UUCCUUCUGUUGUCUGUGCAG [hsa-miR-6868-3p]	-3.76%
CGGGUGGGAGCAGAUCUUAUUGAG [hsa-miR-6766-5p]	-20.9%
UCAACAAAAUCACUGAUGCUGGA [hsa-miR-3065-5p]	-30.5%
UGUGCAAAUCUAUGCAAAACUGA [hsa-miR-19a-3p]	-14.6%
CGACCUCGGCGACCCCUCACU [hsa-miR-6790-3p]	8.29%
AGGGAGGGUGUGGUAUGGAUGU [hsa-miR-6883-5p]	8.82%
CUGCAAUGUAAGCACUUCUUAC [hsa-miR-106a-3p]	18.7%
AAGCAGCAGUGGCAAGACUCCU [hsa-miR-6838-5p]	31.1%
AAGAGGAAGAAAUGGCUGGUUCUCAG [hsa-miR-3916]	-5.24%
